Measured values reported in patent US20260286308A1, “COMPOSITION CONTAINING EXTRACELLULAR MATRIX AND MATRIX-BOUND VESICLES FOR PRODUCING EXTRACELLULAR MATRIX AND PREPARATION METHOD THEREFOR” (HLB CELL CO., LTD, priority 2023, published 2026).

Tests used:
Human fibroblasts [1] = test system: Human fibroblasts
Method: The analysis method followed the manufacturer's instructions.
Culture media each lacking an individual factor were prepared, and then culture was performed according to Example 1.1.
Then, culture was performed according to Example 1.1.

Human fibroblasts [2] = test: Total collagen content in cell culture of single-cultured human fibroblasts (Sirius Red kit, absorbance 530 nm); details: 10 ng/mL epidermal growth factor added alone (Table 3 No. 2); FIG. 17
Method: To measure the human collagen content in the extracellular matrix present in a culture obtained according to each example described below, quantitative analysis was conducted by utilizing a commercially available Sirius Red kit (Chondrex, #9062). The analysis method followed the manufacturer's instructions. Specifically, Sirius Red solution was added to the culture, followed by incubation, and the precipitated collagen was then mixed with an acidic solution and quantitatively analyzed by measurement of absorbance at 530 nm.
Human fibroblasts were seeded at a density of 3×10^5 cells per 150-mm^2 culture dish. The cells were cultured in high-glucose Dulbecco's Modified Eagle's Medium (DMEM) supplemented with 10% fetal bovine serum and 1% penicillin for 7 days while a growth medium was exchanged every 2-3 days.
(§1) After being cultured according to Example 1.1.1, the cells were further cultured from day 8 using a serum-free/xeno-free culture medium [Dulbecco's Modified Eagle Medium: Ham's F-12 (1:1) supplemented with 100 (DMEM/F12) U/mL penicillin/streptomycin, 2 mM L-alanyl-L-glutamine, 5 μg/L selenium, 50 M ascorbate-2-phosphate, 10 mg/L insulin, 1 μM hydrocortisone, 0.02 nM triiodothyronine, 1 μM isoprenaline, and 10 μg/L epidermal growth factor] while the medium was exchanged at intervals of 2 to 3 days. […] The cell culture after collection was analyzed according to Example 3. […]

Human fibroblasts [3] = test: Laminin content in cell culture of single-cultured human fibroblasts (anti-human laminin antibody plate kit, absorbance 450 nm); details: 10 ng/mL epidermal growth factor added alone (Table 3 No. 2); FIG. 16
Method: To measure the amount of human laminin component in the extracellular matrix present in a culture obtained according to each example described below, quantitative analysis was conducted by using a commercially available analysis kit (TakaRa, MK107). The analysis method followed the manufacturer's instructions. Specifically, the culture was added onto a 96-well plate coated with an anti-human laminin antibody, followed by incubation. Thereafter, residues were washed off, and a chromogenic enzyme-conjugated specific antibody was added, followed by incubation. Then, quantitative analysis was conducted by measurement of the absorbance at 450 nm.
Human fibroblasts were seeded at a density of 3×10^5 cells per 150-mm^2 culture dish. […]
as §1

B1: epidermal growth factor: growth factor / ErbB signaling factor added to the serum-free/xeno-free culture medium (protein, UniProt P01133 23-1207, looked up)
Pro-epidermal growth factor: PQHWSCPEGTLAGNGNSTCVGPAPFLIFSHGNSIFRIDTEGTNYEQLVVDAGVSVIMDFHYNEKRIYWVDLERQLLQRVFLNGSRQERVCNIEKNVSGMAINWINEEVIWSNQQEGIITVTDMKGNNSHILLSALKYPANVAVDPVERFIFWSSEVAGSLYRADLDGVGVKALLETSEKITAVSLDVLDKRLFWIQYNREGSNSLICSCDYDGGSVHISKHPTQHNLFAMSLFGDRIFYSTWKMKTIWIANKHTGKDMVRINLHSSFVPLGELKVVHPLAQPKAEDDTWEPEQKLCKLRKGNCSSTVCGQDLQSHLCMCAEGYALSRDRKYCEDVNECAFWNHGCTLGCKNTPGSYYCTCPVGFVLLPDGKRCHQLVSCPRNVSECSHDCVLTSEGPLCFCPEGSVLERDGKTCSGCSSPDNGGCSQLCVPLSPVSWECDCFPGYDLQLDEKSCAASGPQPFLLFANSQDIRHMHFDGTDYGTLLSQQMGMVYALDHDPVENKIYFAHTALKWIERANMDGSQRERLIEEGVDVPEGLAVDWIGRRFYWTDRGKSLIGRSDLNGKRSKIITKENISQPRGIAVHPMAKRLFWTDTGINPRIESSSLQGLGRLVIASSDLIWPSGITIDFLTDKLYWCDAKQSVIEMANLDGSKRRRLTQNDVGHPFAVAVFEDYVWFSDWAMPSVMRVNKRTGKDRVRLQGSMLKPSSLVVVHPLAKPGADPCLYQNGGCEHICKKRLGTAWCSCREGFMKASDGKTCLALDGHQLLAGGEVDLKNQVTPLDILSKTRVSEDNITESQHMLVAEIMVSDQDDCAPVGCSMYARCISEGEDATCQCLKGFAGDGKLCSDIDECEMGVPVCPPASSKCINTEGGYVCRCSEGYQGDGIHCLDIDECQLGEHSCGENASCTNTEGGYTCMCAGRLSEPGLICPDSTPPPHLREDDHHYSVRNSDSECPLSHDGYCLHDGVCMYIEALDKYACNCVVGYIGERCQYRDLKWWELRHAGHGQQQKVIVVAVCVVVLVMLLLLSLWGAHYYRTQKLLSKNPKNPYEESSRDVRSRRPADTEDGMSSCPQPWFVVIKEHQDLKNGGQPVAGEDGQAADGSMQPTSWRQEPQLCGMGTEQGCWIPVSSDKGSCPQVMERSFHMPSYGTQTLEGGVEKPHSLLSANPLWQQRALDPPHQMELTQ
modifications: Pro-epidermal growth factor
For B1, the “amount of extracellular matrix produced, compared among growth factor groups” value (Human fibroblasts [1]; 10 ng/mL epidermal growth factor added alone, compared with FGF-2, KGF and combinations (Table 3)) was “highest amount”, the “amount of extracellular matrix produced” value (Human fibroblasts [1]; factor individually removed from serum-free/xeno-free culture medium (Table 1), compared with medium containing all factors, FIGS. 8 and 9) was “significantly reduced” and the total collagen concentration (Human fibroblasts [2]) was 56.94 µg/mL. For the same molecule, the laminin concentration (Human fibroblasts [3]) was 2.68 µg/mL.
